Laboratory results as given in the supplement of paper PMC9112550, “Optimization of the antimicrobial peptide Bac7 by deep mutational scanning” (BMC Biology, 2022).

Test system: Escherichia coli TOP10
Test: shrunken log2 fold change of peptide-encoding DNA abundance (4.5 h post-induction vs induction); higher = less antimicrobial activity (less host growth inhibition)
Conditions: time post-induction: 4.5 h; library: site-saturation at positions 5, 18, 19, 20
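Further: peptides expressed intracellularly from a pBAD plasmid library in pooled LB shake-flask culture, induced with 0.3% L-arabinose, DNA abundance read by NGS, three biological replicates, DESeq2 with apeglm shrinkage.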

| Sequence | shrunken log2 fold change |
| --- | --- |
| RRIRIRPPRLPRPRPRPQIWPRP | -0.174 |
| RRIRNRPPRLPRPRPRPDPVPRP | -0.137 |
| RRIRWRPPRLPRPRPRPFESPRP | -0.0622 |
| RRIRHRPPRLPRPRPRPDTWPRP | -1.13 |
| RRIRMRPPRLPRPRPRPHNYPRP | -0.0828 |
| RRIRTRPPRLPRPRPRPVQSPRP | -0.00991 |
| RRIRGRPPRLPRPRPRPRGQPRP | 0.803 |
| RRIRIRPPRLPRPRPRPRERPRP | 0.688 |
| RRIRERPPRLPRPRPRPMSAPRP | 0.00792 |
| RRIRLRPPRLPRPRPRPGNPPRP | 0.0749 |
| RRIRPRPPRLPRPRPRPIYLPRP | -0.379 |
| RRIRCRPPRLPRPRPRPWVIPRP | -0.11 |
| RRIRWRPPRLPRPRPRPMCNPRP | -0.181 |
| RRIRKRPPRLPRPRPRPQFCPRP | 0.0712 |
| RRIRLRPPRLPRPRPRPTWAPRP | 0.17 |
| RRIRIRPPRLPRPRPRPMMFPRP | -0.0225 |
| RRIRDRPPRLPRPRPRPQQNPRP | -0.452 |
| RRIRDRPPRLPRPRPRPSGPPRP | -0.0549 |
| RRIRSRPPRLPRPRPRPINKPRP | -0.641 |
| RRIRCRPPRLPRPRPRPTYGPRP | -0.0844 |
| RRIRLRPPRLPRPRPRPLINPRP | -0.519 |
| RRIRTRPPRLPRPRPRPEYLPRP | -0.0156 |
| RRIRTRPPRLPRPRPRPTKTPRP | 0.0558 |
| RRIRARPPRLPRPRPRPELIPRP | 0.606 |
| RRIRFRPPRLPRPRPRPCIMPRP | -0.953 |

| Sequence | shrunken log2 fold change |
| --- | --- |
| RRIRCRPPRLPRPRPRPDCHPRP | -0.0697 |
| RRIRARPPRLPRPRPRPMRAPRP | 1.25 |
| RRIRTRPPRLPRPRPRPTTYPRP | -0.441 |
| RRIRPRPPRLPRPRPRPIPIPRP | -0.065 |
| RRIRHRPPRLPRPRPRPLYCPRP | -0.327 |
| RRIRYRPPRLPRPRPRPIYMPRP | -0.22 |
| RRIRKRPPRLPRPRPRPLIRPRP | -0.0949 |
| RRIRYRPPRLPRPRPRPRTDPRP | -0.0428 |
| RRIRWRPPRLPRPRPRPRWSPRP | 0.372 |
| RRIRIRPPRLPRPRPRPKSQPRP | -0.0352 |
| RRIRHRPPRLPRPRPRPIAVPRP | -0.219 |
| RRIRARPPRLPRPRPRPGPLPRP | 0.429 |
| RRIRKRPPRLPRPRPRPRPPPRP | 1.15 |
| RRIRMRPPRLPRPRPRPLNPPRP | 0.0743 |
| RRIRKRPPRLPRPRPRPIASPRP | 0.0246 |
| RRIRGRPPRLPRPRPRPILRPRP | 0.161 |
| RRIRYRPPRLPRPRPRPEEDPRP | -0.0024 |
| RRIRFRPPRLPRPRPRPPHPPRP | 0.615 |
| RRIRRRPPRLPRPRPRPSQAPRP | 0.113 |
| RRIRCRPPRLPRPRPRPNLLPRP | -0.572 |
| RRIRPRPPRLPRPRPRPINCPRP | -0.126 |
| RRIRERPPRLPRPRPRPCWYPRP | -0.0102 |
| RRIRPRPPRLPRPRPRPNTQPRP | -0.159 |
| RRIRFRPPRLPRPRPRPIYIPRP | -0.832 |
| RRIRRRPPRLPRPRPRPYEMPRP | -0.0957 |

| Sequence | shrunken log2 fold change |
| --- | --- |
| RRIRLRPPRLPRPRPRPMSGPRP | -0.0068 |
| RRIRERPPRLPRPRPRPRLWPRP | 0.0271 |
| RRIRVRPPRLPRPRPRPWFWPRP | 0.121 |
| RRIRLRPPRLPRPRPRPLWSPRP | 0.0537 |
| RRIRMRPPRLPRPRPRPKMKPRP | 1.45 |
| RRIRYRPPRLPRPRPRPRDDPRP | -0.241 |
| RRIRSRPPRLPRPRPRPFGQPRP | -0.197 |
| RRIRVRPPRLPRPRPRPIHIPRP | -1.11 |
| RRIRHRPPRLPRPRPRPGYEPRP | -0.454 |
| RRIRFRPPRLPRPRPRPRYMPRP | -0.689 |
| RRIRTRPPRLPRPRPRPFTSPRP | -0.0603 |
| RRIRDRPPRLPRPRPRPTCNPRP | 0.13 |
| RRIRHRPPRLPRPRPRPPKSPRP | 0.398 |
| RRIRNRPPRLPRPRPRPRMIPRP | 0.0468 |
| RRIRLRPPRLPRPRPRPINYPRP | -0.857 |
| RRIRLRPPRLPRPRPRPNDMPRP | -0.258 |
| RRIRFRPPRLPRPRPRPSNDPRP | -0.112 |
| RRIRIRPPRLPRPRPRPCNEPRP | -0.0608 |
| RRIRERPPRLPRPRPRPHRIPRP | -0.229 |
| RRIRHRPPRLPRPRPRPTQCPRP | -0.0253 |
| RRIRWRPPRLPRPRPRPVFTPRP | 0.0746 |
| RRIRVRPPRLPRPRPRPNIYPRP | -0.25 |
| RRIRPRPPRLPRPRPRPMSIPRP | -0.211 |
| RRIRWRPPRLPRPRPRPVMCPRP | -0.0922 |
| RRIRKRPPRLPRPRPRPSTIPRP | -0.0803 |

| Sequence | shrunken log2 fold change |
| --- | --- |
| RRIRKRPPRLPRPRPRPHTFPRP | -0.309 |
| RRIRGRPPRLPRPRPRPTILPRP | 0.131 |
| RRIRCRPPRLPRPRPRPGAVPRP | 0.202 |
| RRIRDRPPRLPRPRPRPSCLPRP | -0.0009 |
| RRIRNRPPRLPRPRPRPIVDPRP | -0.139 |
| RRIRYRPPRLPRPRPRPNAWPRP | -0.165 |
| RRIRWRPPRLPRPRPRPFIGPRP | -0.38 |
| RRIRVRPPRLPRPRPRPDAEPRP | 0.431 |
| RRIRGRPPRLPRPRPRPLPRPRP | 1.5 |
| RRIRCRPPRLPRPRPRPKNAPRP | -0.103 |
| RRIRCRPPRLPRPRPRPTNFPRP | -0.124 |
| RRIRYRPPRLPRPRPRPRMFPRP | -0.306 |
| RRIRYRPPRLPRPRPRPTNEPRP | -0.586 |
| RRIRGRPPRLPRPRPRPPMFPRP | 0.295 |
| RRIRIRPPRLPRPRPRPQSEPRP | -0.219 |
| RRIRFRPPRLPRPRPRPAHGPRP | 0.418 |
| RRIRPRPPRLPRPRPRPIRAPRP | -0.106 |
| RRIRERPPRLPRPRPRPRWDPRP | 0.143 |
| RRIRCRPPRLPRPRPRPIMGPRP | 0.00854 |
| RRIRIRPPRLPRPRPRPRGIPRP | -0.0459 |
| RRIRARPPRLPRPRPRPGPCPRP | 0.251 |
| RRIRARPPRLPRPRPRPCSWPRP | 0.0664 |
| RRIRTRPPRLPRPRPRPQVKPRP | -0.0733 |
| RRIRNRPPRLPRPRPRPEVNPRP | -0.0723 |
| RRIRQRPPRLPRPRPRPNRYPRP | -0.0216 |

| Sequence | shrunken log2 fold change |
| --- | --- |
| RRIRGRPPRLPRPRPRPMCWPRP | 0.859 |
| RRIRQRPPRLPRPRPRPWLMPRP | -0.102 |
| RRIRHRPPRLPRPRPRPQLAPRP | 0.0733 |
| RRIRHRPPRLPRPRPRPNRKPRP | 0.0857 |
| RRIRTRPPRLPRPRPRPWAEPRP | -0.0837 |
| RRIRSRPPRLPRPRPRPGDSPRP | -0.0926 |
| RRIRMRPPRLPRPRPRPAYTPRP | -0.0493 |
| RRIRHRPPRLPRPRPRPLVKPRP | -0.29 |
| RRIRGRPPRLPRPRPRPAPHPRP | 0.95 |
| RRIRHRPPRLPRPRPRPPNSPRP | -0.201 |
| RRIRWRPPRLPRPRPRPPNCPRP | -0.11 |
| RRIRMRPPRLPRPRPRPIAGPRP | -0.0293 |
| RRIRSRPPRLPRPRPRPCGEPRP | 0.385 |
| RRIRFRPPRLPRPRPRPGWDPRP | 0.0298 |
| RRIRWRPPRLPRPRPRPWKFPRP | 0.0588 |
| RRIRDRPPRLPRPRPRPCLIPRP | 0.0225 |
| RRIRIRPPRLPRPRPRPINTPRP | -0.954 |
| RRIRQRPPRLPRPRPRPASSPRP | -0.196 |
| RRIRYRPPRLPRPRPRPDFLPRP | -0.542 |
| RRIRDRPPRLPRPRPRPLRPPRP | 1.15 |
| RRIRCRPPRLPRPRPRPTSRPRP | -0.0338 |
| RRIRWRPPRLPRPRPRPMLQPRP | 0.544 |
| RRIRWRPPRLPRPRPRPIFIPRP | -0.592 |
| RRIRIRPPRLPRPRPRPWEDPRP | -0.202 |
| RRIRWRPPRLPRPRPRPFIQPRP | -0.437 |

| Sequence | shrunken log2 fold change |
| --- | --- |
| RRIRWRPPRLPRPRPRPDAPPRP | 0.558 |
| RRIRHRPPRLPRPRPRPHRKPRP | -0.351 |
| RRIRQRPPRLPRPRPRPEWHPRP | 0.33 |
| RRIRGRPPRLPRPRPRPTLCPRP | 0.443 |
| RRIRKRPPRLPRPRPRPYQEPRP | 0.0431 |
| RRIRMRPPRLPRPRPRPKSFPRP | -0.015 |
| RRIRWRPPRLPRPRPRPAQHPRP | 0.363 |
| RRIRTRPPRLPRPRPRPLIIPRP | -0.784 |
| RRIRLRPPRLPRPRPRPPKVPRP | 0.287 |
| RRIRFRPPRLPRPRPRPIAPPRP | 0.0659 |
| RRIRPRPPRLPRPRPRPNIEPRP | -0.294 |
| RRIRFRPPRLPRPRPRPERQPRP | -0.000475 |
| RRIRWRPPRLPRPRPRPTNAPRP | 0.0747 |
| RRIRWRPPRLPRPRPRPDCMPRP | 0.259 |
| RRIRPRPPRLPRPRPRPTWKPRP | -0.0108 |
| RRIRTRPPRLPRPRPRPCQDPRP | -0.13 |
| RRIRCRPPRLPRPRPRPLGVPRP | 0.0123 |
| RRIRCRPPRLPRPRPRPPNNPRP | -0.138 |
| RRIRERPPRLPRPRPRPRFIPRP | -0.414 |
| RRIRDRPPRLPRPRPRPQAHPRP | 0.0994 |
| RRIRMRPPRLPRPRPRPSQIPRP | -0.03 |
| RRIRWRPPRLPRPRPRPWYTPRP | -0.0512 |
| RRIRIRPPRLPRPRPRPYSQPRP | -0.269 |
| RRIRPRPPRLPRPRPRPSCCPRP | -0.0575 |
| RRIRWRPPRLPRPRPRPQKKPRP | 0.0854 |
